# Measured values: article PMC5389665
# Target: TerL P74-26 nuclease domain (residues 256–485) (Thermus phage P74-26)
# Assay: SEC
substance,measurement,value
TerL P74-26 nuclease domain (residues 256–485) (domain or fragment),stoichiometry N,2
